Where “and” joins values, the source holds several entries; their conditions need not be identical. Equal entries are not always repeated.
Key:
[1] = biological target: HPV16 E6 C-terminal PDZ ligand (PL) peptide, biotinylated (human papillomavirus type 16) (UniProt P03126); assay: G assay ELISA; E6 PL peptide titrated on constant GST-PDZ
[2] = biological target: HPV16 E6 C-terminal PDZ ligand (PL) peptide, biotinylated (human papillomavirus type 16) (UniProt P03126); assay: Matrix/G assay ELISA; E6 peptide titrated on GST-PDZ
[3] = biological target: HPV E6 #16 PDZ ligand peptide (C-terminal peptide of the E6 protein of HPV 16) (HPV 16) (UniProt P03126); assay: G assay ELISA, immobilised GST-PDZ, biotin peptide 10 uM
[4] = biological target: HPV16 E6 C-terminal PDZ ligand (PL) peptide, biotinylated (human papillomavirus type 16) (UniProt P03126); assay: G assay ELISA; immobilised GST-PDZ, biotin-peptide 10 uM
[5] = biological target: T1, GST-HPV11E6 fusion protein (full length E6 of HPV11) (human papillomavirus 11, UniProt P04019 1-150); assay: modified ELISA: GST-E6 coated at 5 ug/ml, TIP-TIP-IgG supernatant, anti-hIgG-HRP
T1 construct: domain: full length protein

Row | Molecule | Ave OD [3] | OD S/N (ratio to GST-only well) [3] | Ave OD [4] | OD S/N (ratio vs GST only) [4] | also measured
1 | GST-Magi3 PDZ domain 1 (from UniProt Q5TCQ9 18-106) | – | – | – | – | EC50 [1]: 310 nM; EC50 [2]: 310 nM
2 | GST-PDZK1 PDZ domain 3 | 0.5 A450 nm | 1.92 | – | – | –
3 | GST-Magi2 PDZ domain 3 (from UniProt Q86UL8 774-865) | – | – | 0.416 A450 nm and 0.359 A450 nm | 1.98 and 1.65 | –
4 | GST-TAX IP 2 PDZ domain 1 | 0.508 A450 nm and 0.478 A450 nm | 2.37 and 2.48 | – | – | –
5 | GST-NeDLG PDZ domain 1 | 0.516 A450 nm | 1.98 | – | – | –
6 | GST-SAST2 PDZ domain 1 | – | – | – | – | EC50 [1]: 1200 nM; EC50 [2]: 1200 nM
7 | GST-MAGI1 PDZ domain 5 | – | – | 0.432 A450 nm | 1.77 | –
8 | GST-AF6 PDZ domain 1 | – | – | 0.444 A450 nm | 1.8 | –
9 | GST-PAR3 PDZ domain 3, clone #278.1 | – | – | 0.352 A450 nm | 1.8 | –
10 | GST-PDZ-73 PDZ domain 2 | 0.561 A450 nm | 1.95 | – | – | –
11 | GST-NSP PDZ domain 1, clone #42.5 | – | – | 0.416 A450 nm | 1.95 | –
12 | GST-DLG-6 PDZ domain 1, clone #333.1 | – | – | 0.349 A450 nm | 2.04 | –
13 | GST-MAGI 1 PDZ domain 5 | 0.541 A450 nm | 3.12 | – | – | –
14 | GST-NSP #268.2 PDZ domain 1 | 0.724 A450 nm | 2.58 | – | – | –
15 | GST-KIAA1526 #126.1 PDZ domain 2 | 0.463 A450 nm | 1.87 | – | – | –
16 | GST-INADL PDZ domain 3 | 0.485 A450 nm | 1.86 | – | – | –
17 | GST-Densin 180 PDZ domain 1 | – | – | 0.42 A450 nm and 0.35 A450 nm | 1.96 and 1.82 | –
18 | GST-EZRIN Binding Protein 50 PDZ domain 1, clone #341.1 | – | – | 0.43 A450 nm | 1.65 | –
19 | TIP-TIP-IgG fusion protein (two copies of the TIP-1 PDZ domain fused to the hIgG constant region) (Fc fusion, domain: PDZ domain; not shown: hIgG constant region of the CD5gamma or PEAK10 vector) QRVEIHKLRQGENLILGFSIGGGIDQDPSQNPFSEDKTDKGIYVTRVSEGGPAEIAGLQIGDKIMQVNGWDMTMVTHDQARKRLTKRSEEVVRLLVTRQSLQKQRVEIHKLRQGENLILGFSIGGGIDQDPSQNPFSEDKTDKGIYVTRVSEGGPAEIAGLQIGDKIMQVNGWDMTMVTHDQARKRLTKRSEEVVRLLVTRQSLQK | – | – | – | – | binding result [5]: no binding

— patent publication US20070099199A1 (published 2007)
